Where a chain is given by its changes, count along the chain named. One block for each binder: values may come before it.
Key:
Assay in all cases: SPR (Biacore), recombinant antigen (extracellular domain) immobilized by amine coupling, Fab as analyte, 1:1 binding mass transfer model
recombinant CD3 antigen = recombinant CD3 antigen ( (the Fab labels human PBMCs))
Method: (§1) FIGS. 7A and 7B show surface plasmon resonance sensorgrams of anti-CD25 rFabs using immobilized recombinant CD25 antigen. At t 110 sec, different concentrations of Fab were injected for 180 sec. At t 290 sec, the dissociation phase started.
(§2) The Fab variants of example 1 and 4 were analyzed by surface plasmon resonance spectroscopy (Biacore™). Therefore, the specific recombinant antigen (extracellular domain, expressed in mammalian cells) for a Fab was immobilized on a CMS chip by standard amine coupling. The Fab variants were used as analytes in HBS-EP buffer (0.01 M HEPES pH 7.4, 0.15 M NaCl, 3 mM EDTA, 0.005% v/v Surfactant P20) in a concentration of up to 2 μM Fab. Evaluation was conducted with the Biacore™ X-100 Evaluation Software using an 1:1 binding mass transfer model.

recombinant CD25 antigen = target: T1, recombinant CD25 antigen ( (the Fab labels human PBMCs), UniProt P01589)
T1 construct: extracellular domain; also called immobilized recombinant CD25 antigen; CD25, recombinant extracellular domain
T1 sequence (antigen, looked up): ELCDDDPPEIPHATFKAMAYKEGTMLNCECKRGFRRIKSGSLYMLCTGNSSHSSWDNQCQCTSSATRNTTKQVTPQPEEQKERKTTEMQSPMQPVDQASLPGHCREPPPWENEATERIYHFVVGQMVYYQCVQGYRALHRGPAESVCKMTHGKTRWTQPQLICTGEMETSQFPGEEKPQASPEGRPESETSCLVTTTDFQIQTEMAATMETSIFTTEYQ
Method: as §1, §2

[1] = target: T2, recombinant CD45RA antigen ( (the Fab labels human PBMCs))
T2 construct: extracellular domain; also called CD45RA, recombinant extracellular domain
Method: as §1, §2

recombinant CD28 antigen = target: T3, recombinant CD28 antigen ( (the Fab labels human PBMCs), UniProt P10747)
T3 construct: extracellular domain; also called CD28, recombinant extracellular domain
Method: as §1, §2

recombinant CD4 antigen = target: T4, recombinant CD4 antigen ( (the Fab labels human PBMCs), UniProt P01730)
T4 construct: extracellular domain; also called CD4, recombinant extracellular domain
Method: as §1, §2

recombinant CD3 antigen ( (the Fab labels human PBMCs)), sequence (chain, as listed by the source): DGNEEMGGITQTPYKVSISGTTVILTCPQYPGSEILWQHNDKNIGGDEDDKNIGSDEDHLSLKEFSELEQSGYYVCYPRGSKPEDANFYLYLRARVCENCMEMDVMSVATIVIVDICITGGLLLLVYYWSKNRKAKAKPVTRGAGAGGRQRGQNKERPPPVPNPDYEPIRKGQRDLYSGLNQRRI

B2: RFT5 rFab (Fab, V domains shown)
VH: EVQLQQSGTVLARPGASVKMSCKASGYSFTRYWMHWIKQRPGQGLEWIGAIYPGNSDTSYNQKFEGKAKLTAVTSASTAYMELSSLTHEDSAVYYCSRDYGYYFDFWGQGTTLTVSS
VL: QIVLTQSPAIMSASPGEKVTMTCSASSSISYMQWYQQKPGTSPKRWIYDTSKLASGVPARFSGSGSGTSYSLTISSMEAEDAATYYCHQRSSYTFGGGTKLEIKR
modifications: For the cell assay: biotin (thiol-reactive reagent) on cysteine(s) of the reduced disulfide bridge, position not stated
notes: Recombinant Fab from E. coli; heavy chain optionally followed by a poly-histidine tag; Biotinylated for the cell assay; also called anti-CD25 rFab (based on clone RFT5)
Kd (recombinant CD25 antigen): 0.2 nM | koff (recombinant CD25 antigen): 0.00038 s⁻¹ | kon (recombinant CD25 antigen): 1.9e+06 M⁻¹ s⁻¹

B6: 13B8.2-LAV rFab (Fab, V domains shown)
VH: QVQLKQSGPGLVQPSQSLSITCTVSGFSLTTFGVHWVRQSPGKGLEWLGVIWASGITDYNVPFMSRLSITKDNSKSQVFFKLNSLQPDDTAIYYCAKNDPGTGFAYWGQGTLVTVSA
VL: DIQMTQSPASLSASVGETVTFTCRASENIYSYLAWYQQKQGKSPQLLVHDAKTLAEGVPSRFSGGGSGTQFSLKINTLQPEDFGTYYCQHAYGNPPTFGGGTKLEIKR
modifications: For the cell assay: biotin (thiol-reactive reagent) on cysteine(s) of the reduced disulfide bridge, position not stated
notes: Recombinant Fab from E. coli; heavy chain optionally followed by a poly-histidine tag; Biotinylated for the cell assay; also called mutated variant of anti-CD4 clone 13B8.2
Kd (recombinant CD4 antigen): 15000 nM | koff (recombinant CD4 antigen): 0.006 s⁻¹ | kon (recombinant CD4 antigen): 410 M⁻¹ s⁻¹

Second part, the binder after the results:

Kd (recombinant CD3 antigen): 46 nM | koff (recombinant CD3 antigen): 0.19 s⁻¹ | kon (recombinant CD3 antigen): 4.1e+06 M⁻¹ s⁻¹
B1: OKT3-hum rFab (Fab, V domains shown)
VH: QVQLVQSGGGVVQPGRSLRLSCKASGYTFTRYTMHWVRQAPGKGLEWIGYINPSRGYTNYNQKVKDRFTISRDNSKNTAFLQMDSLRPEDTGVYFCARYYDDHYSLDYWGQGTPVTVSS
VL: DIQMTQSPSSLSASVGDRVTITCSASSSVSYMNWYQQTPGKAPKRWIYDTSKLASGVPSRFSGSGSGTDYTFTISSLQPEDIATYYCQQWSSNPFTFGQGTKLQITR
modifications: For the cell assay: biotin (thiol-reactive reagent) on cysteine(s) of the reduced disulfide bridge, position not stated
notes: Recombinant Fab from E. coli; purified by IMAC; also called humanized variant of anti-CD3 clone OKT3; anti-CD3 rFab

Kd (recombinant CD25 antigen): 21 nM | koff (recombinant CD25 antigen): 0.21 s⁻¹ | kon (recombinant CD25 antigen): 1e+07 M⁻¹ s⁻¹
B3: RFT5-LAV rFab (Fab, V domains shown)
VH: B2 VH with H35A, W107A
VL: B2 VL
modifications: For the cell assay: biotin (thiol-reactive reagent) on cysteine(s) of the reduced disulfide bridge, position not stated
notes: Recombinant Fab from E. coli; heavy chain optionally followed by a poly-histidine tag; Biotinylated for the cell assay; also called mutated variant of anti-CD25 clone RFT5

Kd [1]: 1300 nM | koff [1]: 0.11 s⁻¹ | kon [1]: 88000 M⁻¹ s⁻¹
B4: MEM56-LAV rFab (Fab, V domains shown)
VH: QVQLQQSGAELAKPGASVKMSCKASGYNFTRYWMHWIKQRPGQGLEWIGYINPNTGHTEYNQKFKDKATLTADKSSSTAYMQLSSLTSEDSAVYYCATYYYGSRRDAGQGTTLTVSS
VL: QIVLTQSPAIMSASLGERVTMTCTTSSSVSSSYLHWYQQKPGSSPKLWIYSTSNLASGVPARFSGSGSGTSYSLTISTVEAEDAATYYCHQYHRSPLTFGAGTKLELKR
modifications: In the cell assay the Fab was biotinylated with a thiol-reactive reagent (e.g. maleimide-PEO2-biotin) on cysteines of the reduced disulfide bridge; positions not stated.
notes: Recombinant Fab from E. coli; heavy chain optionally followed by a poly-histidine tag; Biotinylated for the cell assay; also called mutated variant of anti-CD45RA clone MEM56

Kd (recombinant CD28 antigen): 21 nM | koff (recombinant CD28 antigen): 0.089 s⁻¹ | kon (recombinant CD28 antigen): 4.3e+06 M⁻¹ s⁻¹
B5: 15E8-hum rFab (Fab, V domains shown)
VH: QVQLQESGPGLVKPSETLSLTCTVSGFSLTSYGVHWIRQPPGKGLEWLGVIWAGGSTNYNSSLKSRVTISKDTSKNQVSLKLSSVTAADTAVYYCARDKRAPGKLYYGYPDYWGQGTTLTVSS
VL: DIVMTQSPDSLAVSLGERATINCRASESVEYYVTSLMQWYQQKPGQPPKLLIYAASNVESGVPARFSGSGSGTDFTLTISPLQAEDVAVYYCQQTRKVPSTFGGGTKLEIKR
modifications: For the cell assay: biotin (thiol-reactive reagent) on cysteine(s) of the reduced disulfide bridge, position not stated
notes: Recombinant Fab from E. coli; heavy chain optionally followed by a poly-histidine tag; Biotinylated for the cell assay; also called humanized variant of anti-CD28 clone 15E8
